# From the nanobody polyreactivity screen of Harvey et al. (2022)
# Assay: yeast display, Sf9 membrane polyspecificity reagent, FACS + sequencing; frameworks hold sequencing errors
# Method in brief: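 Synthetic nanobody libraries on Saccharomyces cerevisiae BJ5465 were galactose-induced for 36–48 hours, stained 1 hour at 4 °C with 10% biotinylated, detergent-solubilized Sf9 membrane reagent and enriched on streptavidin microbeads. FACS then separated cells into low and high (top ~1%) gates by anti-HA (expression) and streptavidin (reagent binding) fluorescence. Genes were colony-PCR amplified, MiSeq 2 × 250 sequenced and CDR-length filtered. A clone's polyreactivity label is that of its gate of origin.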
row,Sequence,polyreactivity (PSR sort gate)
1,QVQLVESGGGLVQAGGSLRLSCAASGRTFGVYMGWYRQAPGKERELVAVISSGDSTNYADSVKGRFTISRDNAKNTVYLLMNSLKPEDTAVYYCNAYGSDRLTLDDYWGQGTQVSVSS,low polyreactivity
2,QVQLVESGGGLVQAGGSLRLSCAASGRTFGWDAMGWYRQAPGKERELVAAINNSGDITYYADSVKGRFTISRDNAKNTVYLQMNSLKPEDTAVYYCAATAGYYGYPSEYDYWGQGTQVTVSS,low polyreactivity
3,QVQLVESGGGLVQAGGSLRLSCAASGRTFGWNAMGWYRQAPGKERELVAGITTSGGTTYADSVKGRFTISRDNAKNTVYLQMNSLKPEDTAVYYCAAYVIGPDQFIYDYWGQGTQVTVSS,low polyreactivity
4,QVQLVESGGGLVQAGGSLRLSCAASGRTFGWYAMGWYRQAPGKERELVAAINNSGDITYYADSVKGRFTISRDNAKNTVYLQMNSLKPEDTAVYYCAKSLPHSTSRDYWGQGTQVTVSS,low polyreactivity
5,QVQLVESGGGLVQAGGSLRLSCAASGRTFGYNALGWYRQAPGKERELVAAINWSGASTYYADSVKGRFTISRDKAKNTVYLQMNSLKPEDTAVYYCAKVTRGSQYDYWGQGTQVTVSS,low polyreactivity
6,QVQLVESGGGLVQAGGSLRLSCAASGRTFGYNAMGWYRQAPGKERELVAAISWRSGGTYYADSVKGRFTISRDNANNSVYLQMISLKPEDTAVYYCARRSPHHGRDYWGQGTQVTVSS,low polyreactivity
7,QVQLVESGGGLVQAGGSLRLSCAASGRTFGYNAMGWYRQAPGKERELVAVIRSGGSTSYADSVKGRFTISRDNAKNTVYLQMNSLKPEDTAVYYCAATGLYNVTSPYSYKYDYWGQGTQVTVSS,low polyreactivity
8,QVQLVESGGGLVQAGGSLRLSCAASGRTFGYNAMGWYRQAPGKESELVAAINWSGASTYYADSVKGRFTISRDNAKNTVYLQMNSLKAEDTAVYYCAADYSYIYGFDYWGQGTQVTVSS,low polyreactivity
9,QVQLVESGGGLVQAGGSLRLSCAASGRTFGYNAMGWYRQAPVKERELVAAIRTIGDSTYYADSVKGRFTISRDNAKNTVYLQMNSLKPEDTAVFYCAARKLRSRYDYWGQGTQVTVSS,high polyreactivity
10,QVQLVESGGGLVQAGGSLRLSCAASGRTFGYNAMGWYSQAPGKERELVAAISYSGGRTYYADSVKGRFTISRDNAKNTVYLQMNSLKPEDTAVYYCAAKNPYKYDYWGQGTQVTVSS,high polyreactivity
11,QVQLVESGGGLVQAGGSLRLSCAASGRTFGYNVMGWYRQAPGKERELVADITSTSSTSYADSVKGRFTISRDNAKNTVYLQMNSLTPEDTAVYYCAAYYYFFRRYSWRLSGDYWGQGTQVTVSS,low polyreactivity
12,QVQLVESGGGLVQAGGSLRLSCAASGRTFGYYAMGWSRQAPGKERELVAAITYSGGRTRYADSVKGRFTISRDNAKNTVYLQMNSLKPEDTAVYYCNRVIPTQSLRDYYWGQGTQVTVSS,high polyreactivity
13,QVQLVESGGGLVQAGGSLRLSCAASGRTFGYYAMGWYRQAPGKERELVAAISWRGTSTYYADSVKGRFTISRDNAKNTVYLQMNSLKPEDTAVYYCNRYTTRYYPGGDYWGQGTQVTVSS,high polyreactivity
14,QVQLVESGGGLVQAGGSLRLSCAASGRTFGYYAMGWYRQAPGKERELVAAITRSGDRTYYADSVKGRFTISRDNAKNTVYLQLNSLKPEDTAVYYCARYAYLISDYWGQGTQVTVSS,high polyreactivity
15,QVQLVESGGGLVQAGGSLRLSCAASGRTFGYYAMGWYRQAPGKERELVAGIRSSGGSTYYADSVKGRFTISRDNAKNTVYLQMNSLKPEDTAVYYCAARLRSYHYRYGYDYWGQGTQVTVSS,high polyreactivity
16,QVQLVESGGGLVQAGGSLRLSCAASGRTFGYYAMVWYRQAPGKERELVAAISTSGGGTYYADSVKGRFTISRDNAKNTVYLQMNSLKPEDTAVYYCNRDSRVLEGDYWGQGTQVTVSS,low polyreactivity
17,QVQLVESGGGLVQAGGSLRLSCAASGRTFGYYTMGWYRQAPGKERELVAAISWNGDDTYYADSVKGRFTISRDNAKNTVYLQMNSLKPEDTAVYYCAKDFLGNYYWTDVYTYGGEGDYWGQGTQVTVSS,low polyreactivity
18,QVQLVESGGGLVQAGGSLRLSCAASGRTFHAYAMGGYRQARGKARELVATISTSGTSTYYADSVKGRFTISRDNAKNTVYLQMNSLKAEDTAVYYCGKGPRQDFYFSFEYWGQGTQVTVSS,high polyreactivity
19,QVQLVESGGGLVQAGGSLRLSCAASGRTFHDNAMGWYRQAPGKETELVAAISWRGGSTNYADSVKGRFTISRDNAKNTVYLQMNSLKPEDTAVYYCNRDPRKYGKLDYWGQVTQVTVSS,low polyreactivity
20,QVQLVESGGGLVQAGGSLRLSCAASGRTFHDYAMGWYRQAPGKERELVAAISISGVSTYYADSVKGRFTSSRDNAKNTVYLQMNSLKPVDTAVYYCAAAQDAAVYWRPGGYDYWGQGTQVTVSS,low polyreactivity
21,QVQLVESGGGLVQAGGSLRLSCAASGRTFHFYAMGWYRQAPGKERELVASITWSAVRTYYADSVKGRFTISRDNAKNTVYLQMNSLKQVDTAVYYCAKEWDYRLMDYWGQGTQVTVSS,low polyreactivity
22,QVQLVESGGGLVQAGGSLRLSCAASGRTFHGYAMGWYRQAPGKERELVAAINWRGGSTYYADSVKGRFTISRDNAKNTVYLQMNSLKPEDTAVYYCNKRQYSARVSRSYDYWGQGTQVTVSS,high polyreactivity

row,Sequence,polyreactivity (PSR sort gate)
1,QVQLVESGGGLVQAGGSLRLSCAASGRTFHGYAMRWYRQAPGKDRELVAAITSSGARTYYADSVKGRFTISRDNAKNTVYLQMNSLKPEDTACYYCNAEYYSTWYRFDYWGQGTQVTVSS,high polyreactivity
2,QVQLVESGGGLVQAGGSLRLSCAASGRTFHSYAMGWYRQAPGKERELVAVITRRGGSTYYADSVKGRFTISRDNAKNTVYLQMNSLKPEDTAVYYCNKGKSYTYDYWGQGTQVTVSS,high polyreactivity
3,QVQLVESGGGLVQAGGSLRLSCAASGRTFHYNVMGWYRQAPGKERELVAAITNTGGSTYYADSVKGRFTISRDNAKNTVYLQIYSLKPEDTAVYYCAAVIWGRRYGAYPYEYWGQGTQVTVSS,low polyreactivity
4,QVQLVESGGGLVQAGGSLRLSCAASGRTFIAYAMGWYRQAPGKERELVAAITSSGGSTYYADSVKGRFTISRDNAKNTVYLQMNSLKPEDTAVYYCATDIYESPYFYYSYYYWGQGTQVTVSS,low polyreactivity
5,QVQLVESGGGLVQAGGSLRLSCAASGRTFIDYGMGWYRQAPGKERELVAAISSGGSTYYADSVKGRFTISRDNAKNTVYLQMNSLKPEDTAVYYCAAPGFKYDVYAGYVLNGGGDYWGQGTQVTVSS,low polyreactivity
6,QVQLVESGGGLVQAGGSLRLSCAASGRTFIGNVMGWYRQAPGKERELVAAISKSGTRTYYPDSVKGRFTISRDNAKNTVYLQMNSLKPEYTAVYYCAKDHYPRTDDFGYWGQGTQVTVSS,high polyreactivity
7,QVQLVESGGGLVQAGGSLRLSCAASGRTFIGYAMGWYRQAPGKERELAAGISWSGGSTYYADSVKGRFTISRDNAKNTVYLQMNSLKPEDTAVYYCAARGRWSTEYGYWGQGTQVTVSS,low polyreactivity
8,QVQLVESGGGLVQAGGSLRLSCAASGRTFIGYAMGWYRQAPGKERELVAAISPGGSTKYADSVKGRFTISRDNAKNTVYLQMNSLKPEDTAVYYCAASYSGRQDRYPHYDYWGQGTQVTVSS,low polyreactivity
9,QVQLVESGGGLVQAGGSLRLSCAASGRTFIGYAMGWYRQAPGKERELVATISVSGGSTYYADSVKGRFTISRDNAKNTVYLQMNSLKPEDTAVYYCAKAYLRYYDGPYDYWGQGTQVTVSS,low polyreactivity
10,QVQLVESGGGLVQAGGSLRLSCAASGRTFIINTMGWYRQAPGTERQLVAAISKNGATTNYADSVKGRFTISRDNAKNTVYLQMNSLKPVDTAVYYCNARYSGYLRLDYWGQGTQVTVSS,low polyreactivity
11,QVQLVESGGGLVQAGGSLRLSCAASGRTFIKYAMGWYRQAPGKERELVAAISRNGGSTNYADSVKGRFTISRDNAKNTVYLHMNSLKPEDTAVYYCAAVGTVSRTVGYNYWGQGTQVTVSS,high polyreactivity
12,QVQLVESGGGLVQAGGSLRLSCAASGRTFIKYAMGWYRQAPGKERELVAAITYSAGSTSYADSVKGRFTISRDNAKNTVYLQMNRLKPEDTAVYYCARRTRSYGYRSDYYYWGQGTQVTVSS,low polyreactivity
13,QVQLVESGGGLVQAGGSLRLSCAASGRTFINYAMGWYRQAPGKERELVAAITTGGRTNYADSVKGRFTISRDNAKNTVYLQMNILKPEDTAVYYCAADRYYWGRYTLNYWGQGTLVTVSS,low polyreactivity
14,QVQLVESGGGLVQAGGSLRLSCAASGRTFIPYAMGCYRPAPGKERELVAAIRSGASTNYADSVKGRFTISRDNAKITVYLQMNSLNPEDTAVYYCNADFLGGTWFDYWGQGTQVTVSS,high polyreactivity
15,QVQLVESGGGLVQAGGSLRLSCAASGRTFIPYAMGWYRQAPGKVRELVAAIRNGGSTNYADSVKGRFTISRDNAKNTVYLQMNSLKPEATAVYYCNADLPVYVDYINGGYGYWGQGTQVTVSS,low polyreactivity
16,QVQLVESGGGLVQAGGSLRLSCAASGRTFIRYAMGWYRQAPGKERELVAAISWSGDRTYYADSVKGRFTISRDNAKNTVYLQMNSLKPEDTAVYYCNAYRYLRTATFLKFDYWGQGTQVTVSS,high polyreactivity
17,QVQLVESGGGLVQAGGSLRLSCAASGRTFIVYPMGWYRQAPGKERELVAAISKRGGSTYYADSVKGRFTISRDNAKNPVYLQMNRLKPDDTAVYYCNAALSVELGYAYWGQGTQVTVSS,high polyreactivity
18,QVQLVESGGGLVQAGGSLRLSCAASGRTFIYYAMGWYRPAPGKERELVAAITWTGGRTYYADSVKGRFTISRDNAKNTVYLQMNSLKPEDTAVYYWAASDRYGGRDYWGQGTQVTVSS,high polyreactivity
19,QVQLVESGGGLVQAGGSLRLSCAASGRTFIYYAMGWYRQAPGKERELVAGITYSVGSTYYADSVKGRFTISRDNEKNTVYLQMNSLKPEDTAVYFCAADATFESDWGQGTQVTVSS,low polyreactivity
20,QVQLVESGGGLVQAGGSLRLSCAASGRTFIYYAMGWYRQAPGKERELVAVITGGGSTNYADSVKGRFTISRDNAKNTVYLQMNSLKPEDTAVYYCNRDYDASHTSREPLVGYDYWGQGTQVTVSS,low polyreactivity
21,QVQLVESGGGLVQAGGSLRLSCAASGRTFIYYAMGWYRQAPRKERELVATIRGSSTRTYYADSVKGRFTISRDNAKNTVYLQMNSLKPEDTAVYYCAARGTSRKYYYWGQGTQVTVSA,high polyreactivity
